Reference: paper PMC2626169 (Developmental biology, 2008)

T1: SEL-10(G567E) (C. elegans, UniProt Q93794 1-587, G567E)
T1 sequence (looked up): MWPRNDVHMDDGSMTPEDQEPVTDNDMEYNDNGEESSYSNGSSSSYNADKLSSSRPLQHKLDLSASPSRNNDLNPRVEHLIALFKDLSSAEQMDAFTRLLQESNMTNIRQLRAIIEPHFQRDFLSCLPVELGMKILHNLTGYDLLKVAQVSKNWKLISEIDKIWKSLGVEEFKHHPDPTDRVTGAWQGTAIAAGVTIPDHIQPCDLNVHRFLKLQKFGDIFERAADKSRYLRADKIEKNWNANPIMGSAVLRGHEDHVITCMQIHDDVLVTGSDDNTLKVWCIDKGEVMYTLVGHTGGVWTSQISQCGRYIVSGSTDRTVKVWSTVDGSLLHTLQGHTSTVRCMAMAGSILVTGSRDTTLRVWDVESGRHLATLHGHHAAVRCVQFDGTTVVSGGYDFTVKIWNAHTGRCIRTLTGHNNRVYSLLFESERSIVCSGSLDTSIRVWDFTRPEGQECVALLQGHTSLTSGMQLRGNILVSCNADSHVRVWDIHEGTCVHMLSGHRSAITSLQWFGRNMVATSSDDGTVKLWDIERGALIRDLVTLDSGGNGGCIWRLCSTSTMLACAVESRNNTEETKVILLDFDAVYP

T2: SEL-10, wild type (C. elegans, UniProt Q93794 1-587)
T2 sequence (looked up): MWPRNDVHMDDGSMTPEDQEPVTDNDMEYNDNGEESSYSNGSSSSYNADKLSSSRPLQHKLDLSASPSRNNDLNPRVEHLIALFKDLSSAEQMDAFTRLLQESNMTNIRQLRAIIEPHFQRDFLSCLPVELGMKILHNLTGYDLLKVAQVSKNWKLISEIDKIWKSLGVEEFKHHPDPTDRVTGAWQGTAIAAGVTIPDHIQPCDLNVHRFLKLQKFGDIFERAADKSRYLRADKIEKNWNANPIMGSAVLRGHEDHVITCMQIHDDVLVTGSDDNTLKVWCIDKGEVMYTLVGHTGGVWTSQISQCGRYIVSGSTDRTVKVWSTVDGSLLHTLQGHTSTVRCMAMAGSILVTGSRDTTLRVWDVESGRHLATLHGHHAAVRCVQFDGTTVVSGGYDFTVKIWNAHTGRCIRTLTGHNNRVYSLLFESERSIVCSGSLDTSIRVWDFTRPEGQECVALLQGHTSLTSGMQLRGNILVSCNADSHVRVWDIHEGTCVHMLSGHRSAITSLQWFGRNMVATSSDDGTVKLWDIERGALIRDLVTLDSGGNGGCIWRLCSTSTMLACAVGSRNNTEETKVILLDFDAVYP


Experiments:
SEL-10(G567E) = biological target: T1, SEL-10(G567E); experiment: two-hybrid
SEL-10, wild type = biological target: T2, SEL-10, wild type; experiment: two-hybrid

Row | beta-galactosidase activity (CPRG), percent of SKR-1/SEL-10 (SEL-10(G567E)) [%] | beta-galactosidase activity (CPRG), percent of SKR-1/SEL-10 (SEL-10, wild type) [%] | Binder
1 | 3 |  | SKR-1 (Skp1-related 1), wild type (natural protein, C. elegans, UniProt G5ECU1 1-176, looked up) MADQKKVSEAAKEREIKISSSDNEIFLVPRNVIRLSNTINTLLMDLGLDDEEGTNAEPIPVQNVTASILKKVISWCNHHHSDPISTEDSDNREKRTDDIGSWDVEFLKVDQGTLFELILAANYLDIKGLLDVTCKTVANMIKGKSPEEIRRTFNIKNDFTPEEEEQIRKENAWCED
2 | 0.4 | 37 | SKR-1(M140I) (natural protein, C. elegans, UniProt G5ECU1 1-176, looked up) MADQKKVSEAAKEREIKISSSDNEIFLVPRNVIRLSNTINTLLMDLGLDDEEGTNAEPIPVQNVTASILKKVISWCNHHHSDPISTEDSDNREKRTDDIGSWDVEFLKVDQGTLFELILAANYLDIKGLLDVTCKTVANIIKGKSPEEIRRTFNIKNDFTPEEEEQIRKENAWCED
